Legend:
PHK = test: PK selectivity profiling, residual kinase activity; assay type: biochemical; details: 1 μM ARC-669, ATP close to Km
SmMLCK = molecular target: T1, SmMLCK (Homo sapiens, UniProt Q15746); test: PK selectivity profiling, residual kinase activity; assay type: biochemical; details: 1 μM ARC-669, ATP close to Km, read-out: Percentages of residual activities of the kinase reaction
T1 construct: Division of Signal Transduction Therapy, University of Dundee (contract testing)

AMPK = test: PK selectivity profiling, residual kinase activity; assay type: biochemical; details: 1 μM ARC-669, ATP close to Km
PRK2 = PRK2 (Homo sapiens, UniProt Q16513); test: biochemical; details: read-out: Percentages of residual activities of the kinase reaction
Procedure: (§1) Selectivity testing (Table 2) was performed on the commercial basis at the Division of Signal Transduction Therapy, University of Dundee. ATP concentrations that were used in testing were close to the Km value of the kinase.

MAPKAP-K2 = MAPKAP-K2 (Homo sapiens, UniProt P49137); test: biochemical; details: read-out: Percentages of residual activities of the kinase reaction
Procedure: as §1

MINK1 = MINK1 (Homo sapiens, UniProt Q8N4C8); test: biochemical; details: read-out: Percentages of residual activities of the kinase reaction
MINK1, sequence (Q8N4C8 whole entry, species assumed): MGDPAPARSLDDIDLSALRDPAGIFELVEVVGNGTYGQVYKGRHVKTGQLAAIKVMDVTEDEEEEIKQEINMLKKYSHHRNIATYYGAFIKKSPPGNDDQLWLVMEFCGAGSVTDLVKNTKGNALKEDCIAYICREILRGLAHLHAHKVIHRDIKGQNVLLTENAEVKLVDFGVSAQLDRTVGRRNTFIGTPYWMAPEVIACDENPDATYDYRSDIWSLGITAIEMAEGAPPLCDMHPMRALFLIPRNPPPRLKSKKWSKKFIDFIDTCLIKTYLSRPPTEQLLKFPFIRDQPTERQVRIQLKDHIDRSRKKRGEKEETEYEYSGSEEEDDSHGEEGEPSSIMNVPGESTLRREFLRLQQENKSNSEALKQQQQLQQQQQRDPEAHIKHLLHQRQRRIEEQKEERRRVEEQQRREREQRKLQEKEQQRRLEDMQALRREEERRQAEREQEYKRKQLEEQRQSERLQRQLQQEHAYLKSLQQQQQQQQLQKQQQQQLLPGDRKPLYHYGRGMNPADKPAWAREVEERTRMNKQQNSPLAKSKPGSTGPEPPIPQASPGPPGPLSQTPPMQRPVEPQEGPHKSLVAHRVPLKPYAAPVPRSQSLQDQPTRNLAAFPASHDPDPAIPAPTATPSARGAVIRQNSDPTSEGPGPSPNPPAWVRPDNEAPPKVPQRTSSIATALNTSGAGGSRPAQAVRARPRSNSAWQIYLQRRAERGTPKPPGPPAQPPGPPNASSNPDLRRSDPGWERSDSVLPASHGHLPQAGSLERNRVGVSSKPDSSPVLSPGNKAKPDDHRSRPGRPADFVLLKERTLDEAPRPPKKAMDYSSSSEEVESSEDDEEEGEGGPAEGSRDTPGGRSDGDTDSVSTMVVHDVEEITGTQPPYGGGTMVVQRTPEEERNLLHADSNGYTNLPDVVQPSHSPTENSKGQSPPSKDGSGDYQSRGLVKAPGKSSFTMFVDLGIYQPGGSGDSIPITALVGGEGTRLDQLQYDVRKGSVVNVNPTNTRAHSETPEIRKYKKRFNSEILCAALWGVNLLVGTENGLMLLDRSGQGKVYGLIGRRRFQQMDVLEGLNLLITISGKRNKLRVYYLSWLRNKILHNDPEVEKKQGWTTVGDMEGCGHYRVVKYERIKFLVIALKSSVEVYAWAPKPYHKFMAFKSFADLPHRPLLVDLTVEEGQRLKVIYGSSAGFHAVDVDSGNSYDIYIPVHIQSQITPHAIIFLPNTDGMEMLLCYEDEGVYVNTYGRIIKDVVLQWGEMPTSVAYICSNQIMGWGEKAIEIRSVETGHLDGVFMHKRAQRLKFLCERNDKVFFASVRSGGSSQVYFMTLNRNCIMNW
Procedure: as §1

SGK1 = SGK1 (Homo sapiens, UniProt O00141); test: biochemical; details: read-out: Percentages of residual activities of the kinase reaction
Procedure: as §1

MLK3 = MLK3 (Homo sapiens, UniProt Q16584); test: biochemical; details: read-out: Percentages of residual activities of the kinase reaction
MLK3, sequence (Q16584 whole entry, species assumed): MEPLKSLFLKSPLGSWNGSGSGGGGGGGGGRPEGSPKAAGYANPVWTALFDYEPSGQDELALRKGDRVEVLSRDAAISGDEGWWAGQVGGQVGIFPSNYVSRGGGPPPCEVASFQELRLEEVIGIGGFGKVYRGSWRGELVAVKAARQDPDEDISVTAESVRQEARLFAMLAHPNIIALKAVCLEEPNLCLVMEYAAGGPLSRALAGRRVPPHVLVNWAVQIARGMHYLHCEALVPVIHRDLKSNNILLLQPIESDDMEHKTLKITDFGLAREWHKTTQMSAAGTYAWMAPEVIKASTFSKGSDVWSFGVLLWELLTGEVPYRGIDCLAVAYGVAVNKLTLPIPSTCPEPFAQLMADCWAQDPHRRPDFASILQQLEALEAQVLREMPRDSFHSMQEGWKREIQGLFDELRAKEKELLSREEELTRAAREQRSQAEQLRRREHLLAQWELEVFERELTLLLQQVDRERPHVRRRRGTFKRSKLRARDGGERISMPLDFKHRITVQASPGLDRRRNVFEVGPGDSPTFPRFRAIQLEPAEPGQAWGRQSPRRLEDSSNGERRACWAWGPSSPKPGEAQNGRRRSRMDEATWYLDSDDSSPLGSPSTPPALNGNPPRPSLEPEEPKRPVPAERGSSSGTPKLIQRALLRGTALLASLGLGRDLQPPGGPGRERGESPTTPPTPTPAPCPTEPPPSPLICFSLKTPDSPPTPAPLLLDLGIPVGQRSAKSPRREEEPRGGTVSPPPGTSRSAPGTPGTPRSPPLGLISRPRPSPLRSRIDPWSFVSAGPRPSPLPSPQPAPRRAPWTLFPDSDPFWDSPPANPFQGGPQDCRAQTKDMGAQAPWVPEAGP
Procedure: as §1

IKKb = IKKb (Homo sapiens, UniProt O14920); test: biochemical; details: read-out: Percentages of residual activities of the kinase reaction
Procedure: as §1

GSK3b = GSK3b (Homo sapiens, UniProt P49841); test: biochemical; details: read-out: Percentages of residual activities of the kinase reaction
Procedure: as §1

EPH-A4 = EPH-A4 (Homo sapiens, UniProt P54764); test: biochemical; details: read-out: Percentages of residual activities of the kinase reaction
Procedure: as §1

MAPKAP-K3 = MAPKAP-K3 (Homo sapiens, UniProt Q16644); test: biochemical; details: read-out: Percentages of residual activities of the kinase reaction
MAPKAP-K3, sequence (Q16644 whole entry, species assumed): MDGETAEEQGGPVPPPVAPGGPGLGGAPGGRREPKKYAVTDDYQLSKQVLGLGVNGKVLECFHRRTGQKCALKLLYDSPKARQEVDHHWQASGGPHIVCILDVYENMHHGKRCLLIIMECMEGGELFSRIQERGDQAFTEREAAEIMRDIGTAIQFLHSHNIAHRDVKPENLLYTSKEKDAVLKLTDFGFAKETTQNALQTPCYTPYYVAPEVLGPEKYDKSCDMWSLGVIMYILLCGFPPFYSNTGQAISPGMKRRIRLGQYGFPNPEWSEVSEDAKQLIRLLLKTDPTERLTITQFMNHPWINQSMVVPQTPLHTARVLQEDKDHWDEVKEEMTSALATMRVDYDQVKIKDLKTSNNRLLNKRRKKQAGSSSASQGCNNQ
Procedure: as §1

IRAK4 = IRAK4 (Homo sapiens, UniProt Q9NWZ3); test: biochemical; details: read-out: Percentages of residual activities of the kinase reaction
Procedure: as §1

p38d MAPK = p38d MAPK (Homo sapiens, UniProt O15264); test: biochemical; details: read-out: Percentages of residual activities of the kinase reaction
Procedure: as §1

EPH-B2 = EPH-B2 (Homo sapiens, UniProt P29323); test: biochemical; details: read-out: Percentages of residual activities of the kinase reaction
Procedure: as §1

MARK2 = MARK2 (Homo sapiens, UniProt Q7KZI7); test: biochemical; details: read-out: Percentages of residual activities of the kinase reaction
Procedure: as §1

p38b MAPK = p38b MAPK (Homo sapiens, UniProt Q15759); test: biochemical; details: read-out: Percentages of residual activities of the kinase reaction
Procedure: as §1

PAK2 = PAK2 (Homo sapiens, UniProt Q13177); test: biochemical; details: read-out: Percentages of residual activities of the kinase reaction
Procedure: as §1

NUAK1 = NUAK1 (Homo sapiens, UniProt O60285); test: biochemical; details: read-out: Percentages of residual activities of the kinase reaction
Procedure: as §1

HIPK2 = HIPK2 (Homo sapiens, UniProt Q9H2X6); test: biochemical; details: read-out: Percentages of residual activities of the kinase reaction
Procedure: as §1

HIPK3 = HIPK3 (Homo sapiens, UniProt Q9H422); test: biochemical; details: read-out: Percentages of residual activities of the kinase reaction
Procedure: as §1

CAMKKb = CAMKKb (Homo sapiens, UniProt Q96RR4); test: biochemical; details: read-out: Percentages of residual activities of the kinase reaction
Procedure: as §1

JAK2 = JAK2 (Homo sapiens, UniProt O60674); test: biochemical; details: read-out: Percentages of residual activities of the kinase reaction
Procedure: as §1

DAPK1 = DAPK1 (Homo sapiens, UniProt P53355); test: biochemical; details: read-out: Percentages of residual activities of the kinase reaction
Procedure: as §1

IR = IR (Homo sapiens, UniProt P06213); test: biochemical; details: read-out: Percentages of residual activities of the kinase reaction
Procedure: as §1

ERK8 = ERK8 (Homo sapiens, UniProt Q8TD08); test: biochemical; details: read-out: Percentages of residual activities of the kinase reaction
Procedure: as §1

ABL = ABL (Homo sapiens, UniProt P00519); test: biochemical; details: read-out: Percentages of residual activities of the kinase reaction
Procedure: as §1

JNK1 = JNK1 (Homo sapiens, UniProt P45983); test: biochemical; details: read-out: Percentages of residual activities of the kinase reaction
Procedure: as §1

BRSK2 = BRSK2 (Homo sapiens, UniProt Q8IWQ3); test: biochemical; details: read-out: Percentages of residual activities of the kinase reaction
Procedure: as §1

MKK1 = MKK1 (Homo sapiens, UniProt Q02750); test: biochemical; details: read-out: Percentages of residual activities of the kinase reaction
Procedure: as §1

PKCγ = PKCγ (Homo sapiens, UniProt P05129); test: biochemical; details: read-out: Percentages of residual activities of the kinase reaction
Procedure: as §1

MELK = MELK (Homo sapiens, UniProt Q14680); test: biochemical; details: read-out: Percentages of residual activities of the kinase reaction
Procedure: as §1

MARK1 = MARK1 (Homo sapiens, UniProt Q9P0L2); test: biochemical; details: read-out: Percentages of residual activities of the kinase reaction
Procedure: as §1

DYRK1A = DYRK1A (Homo sapiens, UniProt Q13627); test: biochemical; details: read-out: Percentages of residual activities of the kinase reaction
Procedure: as §1

ROCK 2 = ROCK 2 (Homo sapiens, UniProt O75116); test: biochemical; details: read-out: Percentages of residual activities of the kinase reaction
ROCK 2, sequence (O75116 whole entry, species assumed): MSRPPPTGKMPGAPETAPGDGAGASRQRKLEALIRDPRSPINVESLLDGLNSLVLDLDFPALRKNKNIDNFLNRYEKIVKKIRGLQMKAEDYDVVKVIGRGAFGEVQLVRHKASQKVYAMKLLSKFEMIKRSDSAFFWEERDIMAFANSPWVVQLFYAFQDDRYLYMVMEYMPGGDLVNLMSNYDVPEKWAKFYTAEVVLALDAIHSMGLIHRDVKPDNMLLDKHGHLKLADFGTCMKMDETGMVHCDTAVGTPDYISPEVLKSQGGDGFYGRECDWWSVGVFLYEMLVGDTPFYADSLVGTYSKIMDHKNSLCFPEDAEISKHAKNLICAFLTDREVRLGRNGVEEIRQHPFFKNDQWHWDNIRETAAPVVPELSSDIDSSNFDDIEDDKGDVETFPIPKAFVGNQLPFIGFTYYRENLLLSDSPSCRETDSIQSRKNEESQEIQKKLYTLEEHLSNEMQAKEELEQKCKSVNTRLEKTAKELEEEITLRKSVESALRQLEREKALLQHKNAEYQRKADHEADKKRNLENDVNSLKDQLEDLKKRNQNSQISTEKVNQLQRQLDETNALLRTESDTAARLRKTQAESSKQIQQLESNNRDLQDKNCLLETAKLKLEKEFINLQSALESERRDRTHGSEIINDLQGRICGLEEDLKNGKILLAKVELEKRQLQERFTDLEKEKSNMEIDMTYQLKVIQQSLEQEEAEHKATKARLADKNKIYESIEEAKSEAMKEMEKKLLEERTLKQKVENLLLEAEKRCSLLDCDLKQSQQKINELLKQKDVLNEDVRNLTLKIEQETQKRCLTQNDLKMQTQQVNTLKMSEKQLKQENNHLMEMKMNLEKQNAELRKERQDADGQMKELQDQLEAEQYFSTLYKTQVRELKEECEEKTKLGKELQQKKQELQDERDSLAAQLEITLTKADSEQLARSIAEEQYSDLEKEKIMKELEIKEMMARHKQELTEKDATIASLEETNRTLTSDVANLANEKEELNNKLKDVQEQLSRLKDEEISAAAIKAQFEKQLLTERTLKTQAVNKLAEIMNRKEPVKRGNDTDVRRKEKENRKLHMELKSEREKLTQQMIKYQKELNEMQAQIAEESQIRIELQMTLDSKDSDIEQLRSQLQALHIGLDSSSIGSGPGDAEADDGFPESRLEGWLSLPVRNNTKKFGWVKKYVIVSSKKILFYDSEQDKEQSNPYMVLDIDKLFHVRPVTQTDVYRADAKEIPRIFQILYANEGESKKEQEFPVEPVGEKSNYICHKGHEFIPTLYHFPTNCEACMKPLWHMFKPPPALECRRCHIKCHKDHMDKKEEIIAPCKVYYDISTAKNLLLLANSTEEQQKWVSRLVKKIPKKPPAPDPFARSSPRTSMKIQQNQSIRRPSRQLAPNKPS
Procedure: as §1

CHK1 = CHK1 (Homo sapiens, UniProt O14757); test: biochemical; details: read-out: Percentages of residual activities of the kinase reaction
Procedure: as §1

RSK2 = RSK2 (Homo sapiens, UniProt P51812); test: biochemical; details: read-out: Percentages of residual activities of the kinase reaction
Procedure: as §1

TTK = TTK (Homo sapiens, UniProt P33981); test: biochemical; details: read-out: Percentages of residual activities of the kinase reaction
Procedure: as §1

Aurora A = Aurora A (Homo sapiens, UniProt O14965); test: biochemical; details: read-out: Percentages of residual activities of the kinase reaction
Procedure: as §1

CK2 = test: PK selectivity profiling, residual kinase activity; assay type: biochemical; details: 1 μM ARC-669, ATP close to Km

T1 sequence (Q15746 923-1914): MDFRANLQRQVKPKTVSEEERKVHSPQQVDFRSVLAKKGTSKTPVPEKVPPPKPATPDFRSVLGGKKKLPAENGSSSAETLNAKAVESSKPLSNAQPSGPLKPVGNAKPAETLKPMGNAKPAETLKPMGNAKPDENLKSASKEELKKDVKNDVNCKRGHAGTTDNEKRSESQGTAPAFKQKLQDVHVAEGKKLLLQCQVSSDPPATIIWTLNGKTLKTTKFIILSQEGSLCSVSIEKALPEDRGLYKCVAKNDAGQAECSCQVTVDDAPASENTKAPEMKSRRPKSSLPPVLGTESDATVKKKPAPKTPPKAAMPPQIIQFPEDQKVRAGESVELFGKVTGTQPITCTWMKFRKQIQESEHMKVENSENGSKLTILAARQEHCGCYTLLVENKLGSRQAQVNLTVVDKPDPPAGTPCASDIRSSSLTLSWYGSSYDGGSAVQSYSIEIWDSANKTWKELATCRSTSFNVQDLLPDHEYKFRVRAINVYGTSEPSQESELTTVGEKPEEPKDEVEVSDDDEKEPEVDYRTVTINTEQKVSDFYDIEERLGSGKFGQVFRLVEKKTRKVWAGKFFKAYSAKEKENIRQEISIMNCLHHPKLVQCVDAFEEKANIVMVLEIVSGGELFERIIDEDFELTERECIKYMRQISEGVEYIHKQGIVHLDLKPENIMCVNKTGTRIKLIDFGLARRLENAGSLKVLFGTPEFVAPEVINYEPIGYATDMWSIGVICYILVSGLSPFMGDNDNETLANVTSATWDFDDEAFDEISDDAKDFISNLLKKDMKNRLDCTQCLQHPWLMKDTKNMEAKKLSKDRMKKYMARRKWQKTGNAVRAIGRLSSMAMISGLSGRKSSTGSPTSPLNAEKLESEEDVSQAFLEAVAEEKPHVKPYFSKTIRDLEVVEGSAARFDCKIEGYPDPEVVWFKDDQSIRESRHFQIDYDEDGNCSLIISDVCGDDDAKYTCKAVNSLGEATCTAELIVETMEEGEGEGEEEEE

## CN(C)c1ccc2c(c1)Oc1cc(N(C)C)ccc1C21OC(=O)c2cc(C(=O)NCCCC[C@@H](NC(=O)[C@@H](CCCNC(=N)N)NC(=O)[C@@H](CCCNC(=N)N)NC(=O)[C@@H](CCCNC(=N)N)NC(=O)[C@@H](CCCNC(=N)N)NC(=O)[C@@H](CCCNC(=N)N)NC(=O)[C@@H](CCCNC(=N)N)NC(=O)CCCCCNC(=O)[C@@H](CCCNC(=N)N)NC(=O)CCCCCNC(=O)c3ccc(-c4ccnc(N)n4)s3)C(N)=O)ccc21 [ARC-669]
PHK
  Percentages of residual activities of the kinase reaction: 32%
SmMLCK
  remaining activity at 1 µM: 46%
AMPK
  Percentages of residual activities of the kinase reaction: 36%
PRK2
  remaining activity at 1 µM: 4%
MAPKAP-K2
  remaining activity at 1 µM: 13%
MINK1
  remaining activity at 1 µM: 51%
SGK1
  remaining activity at 1 µM: 8%
MLK3
  remaining activity at 1 µM: 70%
IKKb
  remaining activity at 1 µM: 50%
GSK3b
  remaining activity at 1 µM: 77%
EPH-A4
  remaining activity at 1 µM: 76%
MAPKAP-K3
  remaining activity at 1 µM: 31%
IRAK4
  remaining activity at 1 µM: 82%
p38d MAPK
  remaining activity at 1 µM: 104%
EPH-B2
  remaining activity at 1 µM: 96%
MARK2
  remaining activity at 1 µM: 77%
p38b MAPK
  remaining activity at 1 µM: 71%
PAK2
  remaining activity at 1 µM: 43%
NUAK1
  remaining activity at 1 µM: 12%
HIPK2
  remaining activity at 1 µM: 63%
HIPK3
  remaining activity at 1 µM: 97%
CAMKKb
  remaining activity at 1 µM: 41%
JAK2
  remaining activity at 1 µM: 80%
DAPK1
  remaining activity at 1 µM: 20%
IR
  remaining activity at 1 µM: 52%
ERK8
  remaining activity at 1 µM: 23%
ABL
  remaining activity at 1 µM: 88%
JNK1
  remaining activity at 1 µM: 91%
BRSK2
  remaining activity at 1 µM: 77%
MKK1
  remaining activity at 1 µM: 69%
PKCγ
  remaining activity at 1 µM: 13%
MELK
  remaining activity at 1 µM: 31%
MARK1
  remaining activity at 1 µM: 65%
DYRK1A
  remaining activity at 1 µM: 27%
ROCK 2
  remaining activity at 1 µM: 10%
CHK1
  remaining activity at 1 µM: 29%
RSK2
  remaining activity at 1 µM: 4%
TTK
  remaining activity at 1 µM: 66%
Aurora A
  remaining activity at 1 µM: 86%
CK2
  Percentages of residual activities of the kinase reaction: 7%
